Biological target: C3b (Homo sapiens, UniProt P01024)
Assay: AlphaAssay

Sequence of C3b (P01024 23-667, chain 1 of 2): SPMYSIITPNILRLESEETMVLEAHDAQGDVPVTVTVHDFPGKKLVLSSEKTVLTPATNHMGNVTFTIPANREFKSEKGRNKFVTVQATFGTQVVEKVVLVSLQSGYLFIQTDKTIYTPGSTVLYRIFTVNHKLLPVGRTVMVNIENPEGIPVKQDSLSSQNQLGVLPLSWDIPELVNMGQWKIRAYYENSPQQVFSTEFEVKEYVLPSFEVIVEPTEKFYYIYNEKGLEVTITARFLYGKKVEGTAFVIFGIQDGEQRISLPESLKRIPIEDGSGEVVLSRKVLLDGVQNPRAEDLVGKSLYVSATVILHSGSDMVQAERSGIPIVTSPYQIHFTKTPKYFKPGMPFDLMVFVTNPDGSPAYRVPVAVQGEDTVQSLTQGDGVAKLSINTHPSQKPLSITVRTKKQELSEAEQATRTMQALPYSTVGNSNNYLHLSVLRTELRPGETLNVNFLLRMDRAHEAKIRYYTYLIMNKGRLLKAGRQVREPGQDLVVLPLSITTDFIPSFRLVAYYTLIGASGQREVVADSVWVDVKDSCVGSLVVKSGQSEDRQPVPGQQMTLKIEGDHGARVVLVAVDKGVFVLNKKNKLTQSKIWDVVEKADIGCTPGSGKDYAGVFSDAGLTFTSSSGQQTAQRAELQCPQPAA
Sequence of C3b (P01024 749-1663, chain 2 of 2): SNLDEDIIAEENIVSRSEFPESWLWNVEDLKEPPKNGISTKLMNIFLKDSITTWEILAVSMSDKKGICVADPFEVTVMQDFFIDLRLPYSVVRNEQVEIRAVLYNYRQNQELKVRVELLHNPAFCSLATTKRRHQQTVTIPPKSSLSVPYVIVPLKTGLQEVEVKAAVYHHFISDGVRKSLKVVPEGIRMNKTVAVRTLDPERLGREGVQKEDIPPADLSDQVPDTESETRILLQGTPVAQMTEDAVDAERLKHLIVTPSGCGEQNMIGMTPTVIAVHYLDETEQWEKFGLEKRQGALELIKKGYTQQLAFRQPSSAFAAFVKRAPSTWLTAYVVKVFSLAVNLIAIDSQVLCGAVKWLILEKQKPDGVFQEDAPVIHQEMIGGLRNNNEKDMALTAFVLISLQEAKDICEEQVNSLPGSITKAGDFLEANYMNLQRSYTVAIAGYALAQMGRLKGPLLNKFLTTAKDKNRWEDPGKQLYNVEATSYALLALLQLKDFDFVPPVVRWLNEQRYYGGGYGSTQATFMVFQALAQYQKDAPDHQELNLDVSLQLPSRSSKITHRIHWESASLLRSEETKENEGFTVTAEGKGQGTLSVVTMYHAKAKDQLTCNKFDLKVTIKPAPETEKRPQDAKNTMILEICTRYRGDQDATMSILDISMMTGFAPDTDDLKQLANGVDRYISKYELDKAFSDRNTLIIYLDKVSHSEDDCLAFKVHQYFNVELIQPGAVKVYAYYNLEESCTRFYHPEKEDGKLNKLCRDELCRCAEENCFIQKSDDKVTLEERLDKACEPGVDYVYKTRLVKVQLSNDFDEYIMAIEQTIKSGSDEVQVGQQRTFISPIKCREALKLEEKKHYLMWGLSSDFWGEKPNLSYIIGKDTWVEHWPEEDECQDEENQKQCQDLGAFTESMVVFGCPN

B1: SCIN-A (protein)
chain: STSLPTSNEYQNEKLANELKSLLDELNVNELATGSLNTYYKRTIKISGQKAMYALKSKDFKKMSEAKYQLQKIYNEIDEALKSKY
Q: Which Kd does the source give for B1 here?
A: Its Kd is 74 nM.

From PMC4565748 (2015)
